Source: doi:10.1101/2022.02.14.480324
Numbering of substitutions follows the chain as printed.

Columns and labels:
His-OsIRO3 [1] = biological target: T1, His-OsIRO3 (Oryza sativa (rice), UniProt Q10KL8 1-252); assay: EMSA
T1 sequence: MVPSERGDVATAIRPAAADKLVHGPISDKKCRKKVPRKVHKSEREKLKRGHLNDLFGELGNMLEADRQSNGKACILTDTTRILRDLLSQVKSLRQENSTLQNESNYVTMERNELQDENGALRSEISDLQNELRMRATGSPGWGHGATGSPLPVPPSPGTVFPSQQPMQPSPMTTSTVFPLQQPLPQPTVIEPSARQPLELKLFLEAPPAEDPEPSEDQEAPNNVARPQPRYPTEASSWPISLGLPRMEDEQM

His-OsIRO3 [2] = biological target: T1, His-OsIRO3; assay: competition
His-OsIRO3 [3] = biological target: T1, His-OsIRO3; assay: competition; remark: listed apart in the source

B1: pOsIRO2 probe (dsDNA)
DNA 1: CCTCCCTAGCTTGGCAGAATAGTTAATGTTAATCACCTGATTAAA
DNA 2: TTTAATCAGGTGATTAACATTAACTATTCTGCCAAGCTAGGGAGG
B1: binds (His-OsIRO3 [1]).

B2: pOsIRO2 unlabeled (Cold-Probe) (dsDNA)
DNA 1: B1 DNA 1
DNA 2: B1 DNA 2
B2: binds (His-OsIRO3 [2]).

B3: mpOsIRO2 (Cold-Probe-m) (dsDNA)
DNA 1: B1 DNA 1 with C34G, A35T
DNA 2: B1 DNA 2 with T11A, G12C
B3: no binding (His-OsIRO3 [3]).

B4: pOsFIT probe (dsDNA)
DNA 1: TCAAGTAGTATTAGTCAATTGGTCATCACATTTCG
DNA 2: CGAAATGTGATGACCAATTGACTAATACTACTTGA
B4: no binding (His-OsIRO3 [1]).
